Patent publication US20180036395A1, “DOSAGE AND ADMINISTRATION OF MONOSPECIFIC AND BISPECIFIC ANTI-IGR-1R AND ANTI-ERBB3 ANTIBODIES” (Merrimack Pharmaceuticals, Inc., priority 2012, published 2018)

What was measured:
Assay type in all cases: in vivo, human
[1] = system: gastrointestinal neuroendocrine tumors; assay: Treatment of patients with gastrointestinal neuroendocrine tumors
Description: (§1) P4-G1-M1.3 is formulated in 20 mM histidine, 100 mM arginine-HCl, 3% sucrose, at pH 5.5 supplemented with 0.002-0.02% of Tween® 80 at concentration range 5-15 mg/mL. P4-G1-M1.3 is administered to patients at 6 mg/kg, 12 mg/kg, 20 mg/kg, 30 mg/kg, 40 mg/kg, 50 mg/kg or 60 mg/kg q7d, ql4d, q21d, or q28d with a loading dose of 12 mg/kg, 20 mg/kg, 40 mg/kg, 40 mg/kg or 60 mg/kg Everolimus is administered to patients at 2.5 mg, 5 mg, or 10 mg orally once a day or once every other day.
Patients with gastrointestinal neuroendocrine tumors are treated by administration of either monotherapy with an effective amount of everolimus or an effective amount of P4-G1-M1.3, or with combination therapy comprising or consisting of administration of both the effective amount of everolimus and the effective amount of P4-G1-M1.3. P4-G1-M1.3 and everolimus are prepared and dosed as described in Example 1.
Patients with gastrointestinal neuroendocrine tumors are treated by administration of either monotherapy with an effective amount of mTOR inhibitor temsirolimus (Torisel®) or an effective amount of P4-G1-M1.3, or with combination therapy comprising or consisting of administration of both the effective amount of temsirolimus and the effective amount of P4-G1-M1.3. P4-G1-M1.3 is prepared and dosed as described in Example 1. Temsirolimus is dosed at 2.5 mg, 7.5 mg, 15 mg, or 25 mg (25 mg is the manufacturer's recommended dose) infused over a 30-60 minute period once a week.
Patients with gastrointestinal neuroendocrine tumors are treated by administration of either monotherapy with an effective amount of mTOR inhibitor sirolimus (Rapamune®) or an effective amount of P4-G1-M1.3, or with combination therapy comprising or consisting of administration of both the effective amount of sirolimus and the effective amount of P4-G1-M1.3. P4-G1-M1.3 is prepared and dosed as described in Example 1.

[2] = system: locally advanced or metastatic breast cancer; assay: Treatment of patients with locally advanced or metastatic breast cancer
Description: as §1
Patients with estrogen receptor positive or progesterone receptor positive or triple negative breast cancers that are locally advanced or metastatic, or with any of the tumor types listed in Examples 5-10, are treated with a combination of an effective amount of i) any of the mTOR inhibitors of the preceding examples (at doses as described therein), or with a pan-mTOR inhibitor (INK128, CC223, OSI207, AZD8055, AZD2014, or Palomid529) and ii) an effective amount of P4-G1-M1.3. Patients are dosed with P4-G1-M1.3 as described in Example 1. The dose of pan-mTOR inhibitor is the dose used in phase I or, preferably phase II or III clinical trials.
Postmenopausal women with estrogen receptor-positive locally advanced or metastatic breast cancer are treated with a combination of an effective amount of PI3K inhibitor (e.g., XL147 or BKM120) and an effective amount of P4-G1-M1.3. Patients are dosed with P4-G1-M1.3 as described in Example 1. XL147 is dosed at 25, 50, 100, or 200 mg orally once a day for 21 consecutive days. Alternately BKM120 is dosed at […] orally once a day for 28 consecutive days.
Women with estrogen or progesterone receptor positive locally advanced or metastatic breast cancer are treated with a combination therapy comprising or consisting of administration of an effective amount of an antihormonal therapy (such as tamoxifen, exemestane, letrozole or fulvestrant) and administration of an effective amount of P4-G1-M1.3. P4-G1-M1.3 is formulated and administered as described above. Antihormonal therapy is administered in accordance with manufacturer's directions.
Women with estrogen or progesterone receptor positive locally advanced or metastatic breast cancer are treated with a combination of an effective amount of PI3K/mTOR dual inhibitor NVP-BEZ235 and an effective amount of P4-G1-M1.3. Patients are dosed with P4-G1-M1.3 as described in Example 1. NVP-BEZ235 is given orally twice daily at doses of 400 mg, 600 mg, or 800 mg.
Women with locally advanced or metastatic breast cancer are treated with a combination of an effective amount of docetaxel (Taxotere®) and an effective amount of P4-G1-M1.3. Patients are dosed with P4-G1-M1.3 as described in Example 1. Patients are dosed with docetaxel at 25, 50, 75 or 100 mg/m^2 i.v. once every 3 weeks or per standard clinical practice.
Patients with metastatic breast cancer are treated with a combination of an effective amount of paclitaxel (Taxol®) or of eribulin and an effective amount of P4-G1-M1.3. Patients are dosed with P4-G1-M1 as described in Example 1. Patients are dosed per standard clinical practice for paclitaxel or eribulin.

pancreatic carcinoma = assay: Treatment of patients with pancreatic cancer
Description: as §1
Patients with pancreatic carcinoma are treated with a combination of an effective amount of gemcitabine, cytarabine, capecitabine, or 5-fluorouracil (5-FU) and an effective amount of P4-G1-M1.3. Patients are dosed with P4-G1-M1.3 as described in Example 1. Patients are dosed with the manufacturer's recommended dose of gemcitabine, capecitabine or 5-FU.
Patients with pancreatic cancer (KRAS wild-type and KRAS mutant) are treated with a combination of an effective amount of a MEK inhibitor (e.g., GSK1120212, BAY 86-9766 or AZD6244) and an effective amount of P4-G1-M1.3. Patients are dosed with P4-G1-M1.3 as described in Example 1. The clinical dose of MEK inhibitor is the dose used for that inhibitor in phase II or phase III clinical trials.

BxPC-3 tumors = assay: BxPC-3 xenograft pharmacodynamic (PD) study, western blotting of tumor lysates; settings: BxPC-3 PD study tumors
Description: BxPC-3 mouse xenograft models are established using 5×10^6 BxPC-3 cells that are resuspended 1:1 with PBS:Growth factor-reduced Matrigel® and injected subcutaneously into Nu/Nu mice. Tumors are allowed to develop for 8 days. Antibodies are injected intraperitoneally every 3 days (q3d) for 2 rounds of dosing.
For the BxPC-3 PD study, 4 treatment groups are established, each containing 4 mice. These included control, P4-G1-M1.3 (q3d, 600 μg), gemcitabine (q3d, 150 mg/kg) and P4-G1-M1.3+gemcitabine (combined individual doses). Tumors are excised on either day 19 or day 28, resulting in a total of 8 groups.
Tumors are initially weighed and pulverized in a CryoPrep® tissue pulverizer (Covaris). Tissue Extraction Reagent 1 (TER1, Life Technologies™) containing protease and phosphatase inhibitors was added to the tumor at a ratio of lml TER1 per 100 mg of tissue. Samples are incubated on ice for 30 minutes to solubilize tissue and put through a QIAshredder™ column (Qiagen) according to the manufacturer's protocol. A BCA assay (Pierce) is performed to determine protein concentration according to the manufacturer's protocol.
Buffer containing β-Mercaptoethanol (β-ME) is added and lysates are boiled for 5 minutes at 95° C. Approximately 40 μg of protein and two ladders (Invitrogen) are run on each well of an 18-well gel (BioRad). Gels are run at 150 volts constant for approximately 90 minutes and transferred to nitrocellulose membranes using the 8 minute transfer program of the iBlot® (Invitrogen) transfer system. Membranes are blocked in Odyssey® Blocking Buffer (Licor® Biosciences) for 1 hour at room temperature, and then incubated with primary antibodies overnight at 4° C. in 5% BSA in TBS-T. All antibodies are purchased from Cell Signaling and used at the recommended dilution. The following day membranes are washed 3×5 minutes each with TBS-T and then incubated with anti-Rabbit IgG—DyLight® 800 (Cell Signaling) or anti-Rabbit IRDye® 800 (Licor® Biosciences) at 1:10,000-15,000 in 5% milk in TBS-T for 1 hour at room temperature. Membranes were then washed 3×5 minutes each with TBS-T and scanned using the Licor® Odyssey® system (Licor® Biosciences). Intensities are quantified using Image Studio 2.0 and normalized to β-Actin levels.
Using BxPC-3 xenografts, mice with control tumors were compared to those treated with monotherapy with P4-G1-M1.3, monotherapy with gemcitabine or combination therapy with P4-G1-M1.3 and gemcitabine.

B1: P4-G1-M1.3: anti-IGF-1R+anti-ErbB3 polyvalent bispecific antibody, IgG1-(scFv)2 (SEQ ID NO:148 and SEQ ID NO:149) (protein)
chain 1: EVQLLQSGGGLVQPGGSLRLSCAASGFLFSSYPMHWVRQAPGKGLEWVGSISPSGGATPYADSVKGRFTISRDNSKNTLYLQMNSLRPEDTAVYYCAKDFYNILTGNAFDKWGQGTSVTVSSASTGGGGSGGGGSGGGGSGGGGSDIQLTQSPSSLSASLGDRVTITCRASQGISSYLAWYQQKPGKAPKLLIYAGSTPQSGVPSRFSGSGSGTEFTLTISSLQPEDSGTYYCQQYWTWPLTFGGGTKVEIKRT
chain 2: EVQLVESGGGLVQPGRSLRLSCAASGFTFDDYAMHWVRQAPGKGLEWVSGISWNSGSTGYADSVKGRFTISRDNAKNSLYLQMNSLRAEDTALYYCARDLGYNQWLEGFDYWGQGTLVTVSSASTGGGGSGGGGSGGGGSGGGGSSSELTQDPAVSVALGQTVRITCQGDSLRSYYASWYQQKPGQAPVLVIYGKNNRPSGIPDRFSGSSSGNTASLTITGAQAEDEADYYCMSRDHPGNQWVFGGGTKVTVLG
modifications: Synthetic polypeptide:Anti-IGF-1R scFvs M76; Synthetic polypeptide:Anti-ErbB3 scFvs P6L
For B1, which treatment outcome ([1]; everolimus + P4-G1-M1.3) is on record?
Its treatment outcome is “combinatorially enhanced outcome”.

And the treatment outcome ([1]; sirolimus + P4-G1-M1.3)?
Its treatment outcome is “combinatorially enhanced outcome”.

What about the treatment outcome ([1]; temsirolimus + P4-G1-M1.3) of the same molecule?
Its treatment outcome is “combinatorially enhanced outcome”.

What about the treatment outcome ([2]; ER or PR positive breast cancer, NVP-BEZ235 + P4-G1-M1.3) of the same molecule?
Its treatment outcome is “combinatorially enhanced outcome”.

What about the treatment outcome ([2]; ER or PR positive breast cancer, antihormonal therapy (tamoxifen, exemestane, letrozole or fulvestrant) + P4-G1-M1.3) of the same molecule?
The treatment outcome was “combinatorially enhanced outcome”.

What about the treatment outcome ([2]; ER positive, PR positive or triple negative breast cancers (or tumor types of Examples 5-10), mTOR or pan-mTOR inhibitor + P4-G1-M1.3) of the same molecule?
Its treatment outcome is “combinatorially enhanced outcome”.

What about the treatment outcome ([2]; metastatic breast cancer, paclitaxel or eribulin + P4-G1-M1.3) of the same molecule?
The treatment outcome was “combinatorially enhanced outcome”.

And the treatment outcome ([2]; postmenopausal women, ER-positive breast cancer, PI3K inhibitor (XL147 or BKM120) + P4-G1-M1.3)?
Its treatment outcome is “combinatorially enhanced outcome”.

And the treatment outcome ([2]; women with locally advanced or metastatic breast cancer, docetaxel + P4-G1-M1.3)?
Its treatment outcome is “combinatorially enhanced outcome”.

And the treatment outcome (pancreatic carcinoma; pancreatic cancer (KRAS wild-type and KRAS mutant), MEK inhibitor (GSK1120212, BAY 86-9766 or AZD6244) + P4-G1-M1.3)?
The treatment outcome was “combinatorially enhanced outcome”.

And the treatment outcome (pancreatic carcinoma; patients with pancreatic carcinoma, gemcitabine, cytarabine, capecitabine, or 5-fluorouracil + P4-G1-M1.3)?
The treatment outcome was “combinatorially enhanced outcome”.

What about the ERK phosphorylation (BxPC-3 tumors; FIG. 2H) of the same molecule?
The ERK phosphorylation was “inhibits ERK phosphorylation”.

What about the “apoptosis-inducing activity of gemcitabine (survivin)” value (BxPC-3 tumors; P4-G1-M1.3 600 μg + gemcitabine 150 mg/kg q3d, FIG. 2H) of the same molecule?
Its value is “potentiates apoptosis-inducing activity of gemcitabine”.

What about the “level of receptor complexes (IGF-1R, Insulin Receptor, EGFR, ErbB3, ErbB2)” value (BxPC-3 tumors; P4-G1-M1.3 q3d 600 μg, FIG. 2A-2C) of the same molecule?
Its value is “downregulates receptor complexes”.

And the “PI3K/AKT/mTOR signaling (phospho-AKT, phospho-FoxO, phospho-PDK1, phospho-mTOR, phospho-S6, pRAS40, p4EB-PB1)” value (BxPC-3 tumors; P4-G1-M1.3 q3d 600 μg, FIG. 2D-2G, 2I, 2J)?
The value was “inhibits PI3K/AKT/mTOR signaling”.
